Assay results as given in paper PMC7327165 (mBio, 2020).

B1: CH55 mAb (antibody, V domains shown)
VH: QVQLVQSGAEVKKPGASVKVSCKASGYIFISYFMHWVRQAPGQGLEWMGIINPSSGDTRYAQKFQGRVTMTRDTSTNTVYMELSSLRSDDTAVYYCARRPGGLERHNWLDPWGQGTLVTVSS
VL: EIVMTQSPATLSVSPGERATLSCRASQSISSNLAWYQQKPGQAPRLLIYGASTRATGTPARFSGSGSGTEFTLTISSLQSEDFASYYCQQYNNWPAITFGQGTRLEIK
B2: C11 mAb (antibody, V domains shown)
VH: EVQLVESGGGLVKPGGSLRLSCAASGFTFSSYSMNWVRQAPGRGLEWVSSISNTSTYIYYADSVEGRFTLSRDNAKNSLYLQMNSLRAEDTAVYYCARANQHFDWLLSLLGGYHYYGMDVWGQGTTVTVSS
VL: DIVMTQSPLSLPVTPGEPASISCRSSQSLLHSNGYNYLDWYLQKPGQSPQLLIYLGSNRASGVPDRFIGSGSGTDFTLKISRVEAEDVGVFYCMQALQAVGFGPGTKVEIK
B3: CH54 mAb (antibody, V domains shown)
VH: QVQLVQSGPEVKKPGTSMKISCKASGFTFTRSTMQWVRQARGQRLEWIGWIVVGSGNTNYAQKFQERVTITRDMSTSTAYMELSSLRSEDTAVYYCAAAPVGPTSSDYWGQGTLVTVSS
VL: DIQMTQSPSSLSASVGDRVTITCRASQSIINYLNWYQQKPGRAPKLLIYAASSLLSGVPSRFSGSGSGTDFTLTISSLQPEDFATYYCQQSYSTPYTFGQGTKLEIK
B4: N12-i3 mAb (antibody, V domains shown)
VH: QVQLVQSGAEVKKPGSSVRVSCKASGGSFSRYTVNWVRQAPGQGLEWMARFIPIFNMPDYAPKFQGRITITADESTSTAYLELSSLTSDDTAVYYCASRQHHEYFQEWGQGTLVTVSS
VL: EIVLTQSPGTLSMSPGERATLSCRASRTVSSSNLAWYQQKPGQAPRLLIYDVSSRATGIPDRFSGRGSGTDFTLTISRLEPEDFAVYYCQQYGTSPLTFGGGTKVEIK
B5: A32 mAb (antibody, V domains shown)
VH: QVQLQESGPGLVKPSQTLSLSCTVSGGSSSSGAHYWSWIRQYPGKGLEWIGYIHYSGNTYYNPSLKSRITISQHTSENQFSLKLNSVTVADTAVYYCARGTRLRTLRNAFDIWGQGTMVTVSS
VL: VLTQPPSASGSPGQSVTISCTGTSSDVGGYNYVSWYQHHPGKAPKLIISEVNNRPSGVPDRFSGSKSGNTASLTVSGLQAEDEAEYYCSSYTDIHNFVFGGGTKLTVL
B6: DH677.3 mAb (antibody, V domains shown)
VH: QVQLVQSGAEVQKPGASVKVSCKASGYTFASYDINWVRQATGQGLEWMGWMNPKTGNTGYAQKFQGRVTLTRNTSISTAYMELTSLRSEDTAVYYCATYRIIAAVGYRYFQYWGQGTLVTVSS
VL: DIQLTQSPSSLSASVGDSVTITCRASQGFGNYLAWYQQRPGKVPEVLIYAATTLQSGVPSRFSGSGSGTDFTLTISSLQPEDVATYYCQKYNSAPFTFGQGTRLEIK
B7: C11 Fab (Fab, V domains shown)
VH: B2 VH
VL: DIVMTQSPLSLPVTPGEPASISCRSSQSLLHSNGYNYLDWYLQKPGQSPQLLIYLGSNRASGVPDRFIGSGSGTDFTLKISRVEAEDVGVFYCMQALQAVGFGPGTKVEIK

Target: full-length monomeric gp120 (clade B, BaL strain) (HIV-1 clade B, strain BaL, UniProt Q2MKA8, strain)
Experiment: flow cytometry on cells
Settings: one partner purified

Binder	binding result
B1	binds
B2	binds
B3	binds
B4	binds
B5	binds
B6	binds

Target: T1, full-length single-chain gp120BaL-CD4 complex (FLSC) (HIV-1 clade B, BaL (gp120 moiety); CD4 …, UniProt Q2MKA8, strain)
T1 construct: also called full-length single-chain protein
Experiment: FRET or BRET + other: fluorescence correlation spectroscopy
Settings: both partners purified

Binder	binding result
B7	binds
